Measurements: the supplement of paper PMC9170038

Tested on: MS2 coat protein
Test: apparent KD of MS2 coat protein; designed switch direction (-1 OFF switch, 1 ON switch): -1; higher = weaker reporter binding
Outline: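 Designed RNA switches with common flanks were made on Illumina chips by stalled E. coli RNA polymerase. Titration with SNAP-549-labelled MS2 coat protein doubled from 0.7 or 1.5 nM up to 3 µM. Apparent KD is each design's median over clusters after curve-fitting normalised fluorescence.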

[1] = input ligand: microRNA oligo, concentration not stated
[2] = Eterna round: R95, input ligand: microRNA oligo, concentration not stated

Sequence	apparent KD of MS2 coat protein (input ligand: FMN 200 uM)	apparent KD of MS2 coat protein (input ligand: none)	further results
ACCUCACAUGAGGAUCACCCAUGUCAGGAUAUCUAUUAUUGCAGCAUUCCUGUCGCUGAGAGAAGGGACAUUAA [EX1 #28] (Eterna round: R97, puzzle: Exclusion 1)	29.4 nM	23.7 nM	
ACUAGUCUAAAGGAUAUGGACCUGAACAAAUGGCCAGAAGGUUAAACAUGAGGAUCACCCAUGUAGGUGCGCCA [Eternabot (Original) Solution 18] (Eterna round: R97, puzzle: Exclusion 6)	31.2 nM	27.2 nM	
GACCCACAUGAGGAUCACCCAUGUCAGGAUAUGCAGUUGGAUGCGUCAGAUUUCCAUAGCAGAAGGGAUCUGGC [Eternabot (Original) Solution 14] (Eterna round: R97, puzzle: Exclusion 1)	16.5 nM	18.2 nM	
CGACGACAUGAGGAUCACCCAUGUCAGGAUAUGGAAAACCAGAAUAUAUUUUAACUUUCCAGAAGGGACAGGUC [Eternabot (Original) Solution 1] (Eterna round: R97, puzzle: Exclusion 1)	19.6 nM	18.1 nM	
GAUAGUGGAGGAUAUACAUGAGGAUCACCCAUGUGAAGUUGCGUAAGUGACCCUUCCUGUAGAAGGCCAAGCAA [Eternabot (Original) Solution 31] (Eterna round: R97, puzzle: Exclusion 3)	256 nM	31.9 nM	
CAGUACUGAGGAUAUACAUGAGGAUCACCCAUGUGUUCCAGCGAGGAAACUAGCAAAAGUAGAAGGCAGUACUG [salish99_ex3_r3_077] (Eterna round: R96, puzzle: Exclusion 3)	242 nM	18.5 nM	apparent KD of MS2 coat protein [1]: 15.6 nM
AGUAGUAGUAUCCGUUCUUACAUGAGGAUCACCCAUGUUUCUAGACGUGCACGCGAUGCUCGUCAGACUACCAGAUG [salish99_TOv1_r3_054] (puzzle: Sensor v3, turn-off variant 1)			apparent KD of MS2 coat protein (Eterna round: R95, input ligand: FMN 200 uM): 61.2 nM; apparent KD of MS2 coat protein [2]: 72.3 nM; apparent KD of MS2 coat protein (Eterna round: R95, input ligand: none): 68.9 nM
ACAACAAGCUUUUUGUUCGUAGAACAUGAUGCUCUAGUCACAUGAGGAUCACCCAUGUCAGCCAGUUAGAUAGGUGA [JR_SV3TOV2_Sub064] (Eterna round: R96, puzzle: Sensor v3, turn-off variant 2)	96.7 nM	86 nM	apparent KD of MS2 coat protein [1]: 133 nM
ACUGACAUGAGGAUCACCCAUGUAGAUGUGUUCGCAAGCCUCUAGGAUAUAUCUAACCUACCCGGAUAGAAGGAGAGGUUCCCU [Eternabot solution 9] (Eterna round: R96, puzzle: Exclusion NG 3)	25.2 nM	31.7 nM	apparent KD of MS2 coat protein [1]: 21.1 nM
AAGGAUAGAGGAUAUGCAUAGAUACAGAUUCAUGUAGAACUACAUGAGGAUCACCCAUGUAGAAGGCUAUCCUA [Fiskers Ex 2 - 5] (puzzle: Exclusion 2)			apparent KD of MS2 coat protein [2]: 17.3 nM
AGGAUGUUAGGAUAUCGAAGGUUGUGGCAGGCGGGAAUUUGCGAGAAGGAACAUGAGGAUCACCCAUGUGAAAU [JR_Exclu4_Sub044] (puzzle: Exclusion 4)			apparent KD of MS2 coat protein [2]: 19.7 nM
AAAAGAUAAGGAUAUUGAAGGUUCGACAUGAGGAUCACCCAUGUUAUGUUGGAAAAGGGACAAGAAGGUAUGAAAU [salish99_ex5_r4_202] (Eterna round: R97, puzzle: Exclusion 5)	28.6 nM	29.1 nM	
GCUAUGCAAGGAUAUACAAGAUUAUGACAAGCGUGGAAACGACAUGAGGAUCACCCAUGUAGAAGGUGUUAUGC [Eternabot (L2) Solution 56] (Eterna round: R97, puzzle: Exclusion 2)	58.1 nM	65.5 nM	
GUCAUACAUGAGGAUCACCCAUGUAAGGAUAUGCUAGCGGUCGGCUGACUGACUGCUAGCAGAAGGUACAUGAU (puzzle: Exclusion 1)			apparent KD of MS2 coat protein [2]: 61.5 nM
